Experiments:
[1] = target: TMEM233 (human) (UniProt B4DJY2); experiment: fluorescent ligand binding to cells (plate reader); ExTxA-488 (1–300 nM) with mock- or TMEM233-transfected HEK293 and HEK293-NaV1.7 cells in suspension, 250 mM NaCl, 25 mM HEPES, pH 7, 30 min at 4 °C, washed three times; fluorescence intensity read in 384-well plate; EC50 told for NaV1.7/TMEM233 co-expressing cells
[2] = target: TMEM233 (human) (UniProt B4DJY2)

Alexa488-tagged excelsatoxin A (peptide), sequence (P0DQP3 38-73 limits assumed): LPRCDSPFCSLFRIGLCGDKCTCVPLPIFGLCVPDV
TMEM233 (human), sequence (B4DJY2 whole entry): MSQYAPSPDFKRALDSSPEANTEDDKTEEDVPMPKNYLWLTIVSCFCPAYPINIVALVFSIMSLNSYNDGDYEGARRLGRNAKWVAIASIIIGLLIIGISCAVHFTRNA

Substance: Alexa488-tagged excelsatoxin A (peptide)
- EC50 [1]: 126 nM
- EC50 of functional potency on NaV1.7 inactivation in NaV1.7/TMEM233 co-expressing cells (electrophysiology) [2]: 80.9 nM

Source: publication PMC10147923, “Pain-causing stinging nettle toxins target TMEM233 to modulate NaV1.7 function” (Nature Communications, 2023)
